Laboratory results reported in US20160303255, “COMPOSITIONS AND METHODS FOR TREATMENT OF MUSCULAR DYSTROPHY” (CONSIGLIO NAZIONALE DELLE RICHERCHE, published 2016).

Molecular target: JZif1 (artificial (human Zif268/EGR1 derived), UniProt P18146 SEQ:1-543)
Assay: cell_activity; luciferase induction in HeLa, pXP-Luc (about 318 bp human utrophin promoter A); also active in C2C7 (FIG. 8)
Conditions: tags: none
Procedure: To investigate the ability of JZif1, JZif2, Vp16-CJ7-UtroUp, Vp16-Bagly and Vp16-Jazz to upregulate (i.e., increase) expression from the utrophin promoter “A”, their ability to drive expression of a luciferase reporter gene placed downstream of a utrophin promoter “A” fragment was tested.
To test the ability of these artificial transcription factors to increase expression from the utrophin promoter “A” in human cells, HeLa cells were co-transfected with a plasmid carrying JZif1, JZif2, Vp16-CJ7-UtroUp, Vp16-Bagly or Vp16-Jazz under control of the cytomegalovirus (CMV) promoter together with the luciferase reporter construct plasmid pXP-Luc (pXP). JZif1, JZif2, Vp16-CJ7-UtroUp, Vp16-Bagly and Vp16-Jazz were each able to increase luciferase expression relative to controls (FIG. 7). […] By comparison, no increase in luciferase expression was detected when the pXP plasmid was co-transfected with a plasmid carrying the zinc finger domain of Jazz without a transcriptional activation domain, with a plasmid carrying the genomically-encoded human transcription factor Zif268's transcription activation domain without its zinc finger motifs, or with a plasmid carrying the transcriptional activation domain of Vp16 without a zinc finger DNA binding domain, which served as controls (FIG. 7). […]

Chain of JZif1 (P18146 other isoform, or with tags, fused parts or gaps): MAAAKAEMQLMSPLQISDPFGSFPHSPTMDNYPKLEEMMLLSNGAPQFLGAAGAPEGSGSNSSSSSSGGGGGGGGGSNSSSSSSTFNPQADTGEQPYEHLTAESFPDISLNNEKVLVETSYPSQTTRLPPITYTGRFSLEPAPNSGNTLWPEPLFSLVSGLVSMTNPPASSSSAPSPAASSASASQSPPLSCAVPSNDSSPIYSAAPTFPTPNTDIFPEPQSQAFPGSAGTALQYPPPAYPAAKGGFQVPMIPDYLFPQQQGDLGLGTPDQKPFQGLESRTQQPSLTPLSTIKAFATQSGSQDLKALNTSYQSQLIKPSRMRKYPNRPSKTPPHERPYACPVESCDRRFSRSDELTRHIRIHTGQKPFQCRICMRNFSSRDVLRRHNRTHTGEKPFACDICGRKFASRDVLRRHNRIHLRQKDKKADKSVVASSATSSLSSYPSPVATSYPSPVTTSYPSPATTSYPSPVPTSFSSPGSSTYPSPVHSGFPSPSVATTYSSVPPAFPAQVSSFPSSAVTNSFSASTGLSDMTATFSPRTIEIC

B1: Jazz/JZif1 target in human utrophin promoter A (dsDNA)
DNA 1: GCTGCTGCG
DNA 2: CGCAGCAGC
- activity: > 20 fold
